Molecular target: HLA-A*02:01 (Homo sapiens, UniProt P04439, D140Y/D185E/D98H/E176V/E277Q/G131W/G231S/I119V/I121R/I166T/I218V/L300P/L318F/N151K/N90K/P208A/P217A/Q86G/Q94H/R138H/R169H/T345S)
Assay: MHC binding assay (UV-ligand exchange, beta2m ELISA, peptide exchange yield)
Conditions: binding of HLA-class I restricted peptides to HLA-A*02:01, ranged by peptide exchange yield (UV-ligand exchange, β2m ELISA)
How it was run: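 Peptide–HLA-A*02:01 complexes made by UV-mediated exchange of a photocleavable peptide with the test peptide. Exchange products diluted 100-fold on streptavidin-coated plates, 1 h at 37°C, then HRP anti-β2m 1 h at 37°C; TMB read at 450 nm to give exchange yield.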

Row | Substance | Peptide exchange
1 | 129 (GLLDGGVDILL; listed as Homo sapiens) [compound 129] | ″+++″ (≥50% = +++)
2 | 169 (NLPEYLPFV; listed as Homo sapiens) [compound 169] | ″+++″ (≥50% = +++)
3 | 31 (YLAPELFVNV; listed as Homo sapiens) [compound 31] | ″++″ (≥20% = ++)
4 | 136 (YLADPSNLFVV; listed as Homo sapiens) [compound 136] | ″+++″ (≥50% = +++)
5 | 240 (ILLEQAFYL; listed as Homo sapiens) [compound 240] | ″+++″ (≥50% = +++)
6 | 208 (KISPVTFSV; listed as Homo sapiens) [compound 208] | ″+++″ (≥50% = +++)
7 | 84 (VTFGEKLLGV; listed as Homo sapiens) [compound 84] | ″++″ (≥20% = ++)
8 | 303 (AILPQLFMV; listed as Homo sapiens) [compound 303] | ″++++″ (≥75% = ++++)
9 | 148 (ALNPEIVSV; listed as Homo sapiens) [compound 148] | ″++″ (≥20% = ++)
10 | 322 (TLMTSLPAL; listed as Homo sapiens) [compound 322] | ″+++″ (≥50% = +++)
11 | 201 (RLVDYLEGI; listed as Homo sapiens) [compound 201] | ″+++″ (≥50% = +++)
12 | 233 (VLSETLYEL; listed as Homo sapiens) [compound 233] | ″++″ (≥20% = ++)
13 | 107 (FLQPVDDTQHL; listed as Homo sapiens) [compound 107] | ″+++″ (≥50% = +++)
14 | 226 (MLYVVPIYL; listed as Homo sapiens) [compound 226] | ″++″ (≥20% = ++)
15 | 344 (YLQDQHLLLTV; listed as Homo sapiens) [compound 344] | ″+++″ (≥50% = +++)
16 | 286 (YLFPGIPEL; listed as Homo sapiens) [compound 286] | ″+++″ (≥50% = +++)
17 | 102 (YLFESEGLVL; listed as Homo sapiens) [compound 102] | ″+++″ (≥50% = +++)

Row | Substance | Peptide exchange
18 | 71 (GILARIASV; listed as Homo sapiens) [compound 71] | ″+++″ (≥50% = +++)
19 | 335 (YSLSSVVTV; listed as Homo sapiens) [compound 335] | ″+++″ (≥50% = +++)
20 | 159 (GLVGNPLPSV; listed as Homo sapiens) [compound 159] | ″++++″ (≥75% = ++++)
21 | 176 (YLMEGSYNKVFL; listed as Homo sapiens) [compound 176] | ″++″ (≥20% = ++)
22 | 331 (KVDTVWVNV; listed as Homo sapiens) [compound 331] | ″+++″ (≥50% = +++)
23 | 334 (TLTKVLVAL; listed as Homo sapiens) [compound 334] | ″+++″ (≥50% = +++)
24 | 122 (FLLAEDDIYL; listed as Homo sapiens) [compound 122] | ″+++″ (≥50% = +++)
25 | 23 (VLLDDIFAQL; listed as Homo sapiens) [compound 23] | ″+++″ (≥50% = +++)
26 | 39 (SVAPNLPAV; listed as Homo sapiens) [compound 39] | ″+++″ (≥50% = +++)
27 | 223 (ALLENIALYL; listed as Homo sapiens) [compound 223] | ″+++″ (≥50% = +++)
28 | 170 (RLQETLSAA; listed as Homo sapiens) [compound 170] | ″+++″ (≥50% = +++)
29 | 317 (SLAALVVHV; listed as Homo sapiens) [compound 317] | ″+++″ (≥50% = +++)
30 | 214 (FLLDLDPLLL; listed as Homo sapiens) [compound 214] | ″+++″ (≥50% = +++)
31 | 295 (VLDRESPNV; listed as Homo sapiens) [compound 295] | ″+++″ (≥50% = +++)
32 | 7 (SLVGLLLYL; listed as Homo sapiens) [compound 7] | ″++++″ (≥75% = ++++)
33 | 313 (VLFDDELLMV; listed as Homo sapiens) [compound 313] | ″+++″ (≥50% = +++)
34 | 189 (ALQRKLPYV; listed as Homo sapiens) [compound 189] | ″+++″ (≥50% = +++)

Continued, values first:

Row | Peptide exchange | Substance
35 | ″++″ (≥20% = ++) | 372 (TMLLNIPLV; listed as Homo sapiens) [compound 372]
36 | ″+++″ (≥50% = +++) | 551 (KLYESLLPFA; listed as Homo sapiens) [compound 551]
37 | ″++″ (≥20% = ++) | 375 (SLTETIEGV; listed as Homo sapiens) [compound 375]
38 | ″+++″ (≥50% = +++) | 599 (YLLNDASLISV; listed as Homo sapiens) [compound 599]
39 | ″+++″ (≥50% = +++) | 588 (SLLPLSHLV; listed as Homo sapiens) [compound 588]
40 | ″+++″ (≥50% = +++) | 595 (VLLSIYPRV; listed as Homo sapiens) [compound 595]
41 | ″+++″ (≥50% = +++) | 359 (YLLPESVDL; listed as Homo sapiens) [compound 359]
42 | ″+++″ (≥50% = +++) | 474 (YLDPALELGPRNV; listed as Homo sapiens) [compound 474]
43 | ″++++″ (≥75% = ++++) | 576 (ILLNNSGQIKL; listed as Homo sapiens) [compound 576]
44 | ″++″ (≥20% = ++) | 385 (SLLEQGLVEA; listed as Homo sapiens) [compound 385]
45 | ″+++″ (≥50% = +++) | 561 (YLQLTQSEL; listed as Homo sapiens) [compound 561]
46 | ″+++″ (≥50% = +++) | 361 (ALYELEGTTV; listed as Homo sapiens) [compound 361]
47 | ″+++″ (≥50% = +++) | 597 (KLLEGQVIQL; listed as Homo sapiens) [compound 597]
48 | ″++″ (≥20% = ++) | 377 (FLLDSSASV; listed as Homo sapiens) [compound 377]
49 | ″+++″ (≥50% = +++) | 635 (SLDSTLHAV; listed as Homo sapiens) [compound 635]
50 | ″++″ (≥20% = ++) | 458 (SLIDKLYNI; listed as Homo sapiens) [compound 458]
51 | ″+++″ (≥50% = +++) | 454 (KLPPPPPQA; listed as Homo sapiens) [compound 454]
52 | ″+++″ (≥50% = +++) | 457 (SLLPGNLVEKV; listed as Homo sapiens) [compound 457]
53 | ″++″ (≥20% = ++) | 461 (VMFRTPLASV; listed as Homo sapiens) [compound 461]
54 | ″++″ (≥20% = ++) | 523 (YQIPRTFTL; listed as Homo sapiens) [compound 523]
55 | ″+++″ (≥50% = +++) | 531 (YTLPIASSIRL; listed as Homo sapiens) [compound 531]
56 | ″+++″ (≥50% = +++) | 388 (SLTIDGIRYV; listed as Homo sapiens) [compound 388]
57 | ″++″ (≥20% = ++) | 432 (TLIEESAKV; listed as Homo sapiens) [compound 432]
58 | ″++++″ (≥75% = ++++) | 553 (SLLNQDLHWSL; listed as Homo sapiens) [compound 553]
